From the nanobody polyreactivity screen of Harvey et al. (2022) come the findings set out here.

The data set in a line: yeast display, Sf9 membrane polyspecificity reagent, FACS + sequencing; frameworks hold sequencing errors. The method in brief:
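Polyreactivity labels are assigned by the sorting gate from which each nanobody was recovered. The gates were low and high (top ~1%), set on anti-HA fluorescence for expression and streptavidin fluorescence for reagent binding. Before sorting, galactose-induced (36–48 hours) yeast display cells were stained for 1 hour at 4 °C with 10% biotinylated, detergent-solubilized Sf9 membrane reagent.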
In the case of “QVQLVESRGGLVQAGGSLRLSCAASGRILDLNSMGWYRQAPGKEREFVAAISYSGGRTYYADSVKGRFTISRDNAKNTVYLQMNSLKPEDTAVYYCATDDVWKDGYWGQGTQVTVSS”, the “polyreactivity (PSR sort gate)” value is reported as “low polyreactivity”.

As to “QVQLVESRGGLVQAGGSLRLSCAASGRTFGGYAMGWYRQAPGKERELVAAISTRGGTTYYADSVKGRFTISRDNAKNTVYLQMNSLKPEDTAVYYCAAVYLYYYNRYYYWGQGSQVTVSS”, the “polyreactivity (PSR sort gate)” value is listed as “high polyreactivity”.

Turning to “QVQLVESRGGLVQAGGSLRLSCAASGRTFQYYAKGWYRQERGKVRELVAAISGSTSRTYYADSVKGRFTISRDNAKNTVYLQMNSLKPEDTAVSYCAAALYRLYITSYYYWGPGTQVTVSS”, the “polyreactivity (PSR sort gate)” value was “high polyreactivity”.

For the sequence “QVQLVESRGGLVQAGGSLRLSCAASGRTFRSYVMGWYRQAPGKERELVAAITTSGGSTYYADSVKGRFTISRDTAKNTVYLQMNSLKPEETAVYYCAAEYYTYTGHYDSWYGDDYWGQGTQVTVSS”, the “polyreactivity (PSR sort gate)” value was “high polyreactivity”.

Consider “QVQLVESRGGLVQAGGSLRLSCAASGRTFWYYAMGWYRQAPGKELELVATITGSGGTTYYADSVKGRFTISRDNAKNTVYLQMNSLKPEDTAVYYCAKEQHWYIYGPAEVDYWGQGTQVTVSS”, for which the “polyreactivity (PSR sort gate)” value is “high polyreactivity”.

Turning to “QVQLVESRGGLVQAGGSLRLSCAASGRTLKYNVMGWYRQAPGKERELVASITSRGGSTRYADSVKGRFTISRDNAKNTVYLQMNSLKPEDTAVYYCAARYTTARSSYDYWGQGTQVTVSS”, the “polyreactivity (PSR sort gate)” value is on record as “high polyreactivity”.

Take “QVQLVESRGGLVQAGGSLRLSCAASGSIFAIYTMGWYRQAPGKERELVAAITGNGGRTYYADSVKGRFTISRDNAKNTVYLQMNSLKPEDTAVYYCAVVGYHRDYDYWGQGTQVTVSS”: the “polyreactivity (PSR sort gate)” value is on record as “low polyreactivity”.

On to “QVQLVESRGGLVQAGGSLRLSCAASGSIFDVNAMGWYRQAPGKERELVAAISQRGTRTYYADSVKGRFTISRDNAKNTVYLQMNSLKPEDTAVYYCNRGGWREYDSWGQGTQVTVSS”, for which the “polyreactivity (PSR sort gate)” value is recorded as “high polyreactivity”.

On to “QVQLVESRGGLVQAGGSLRLSCAASGSIFGWYAMGWYRPAPGKERELVAAINWSGGRTYYADSVKGRFTISRDNAKNTVYLQMNRLKPEDTAVYYCNKVVPGYSAPKYDYWGQGTQVTVSS”, for which the “polyreactivity (PSR sort gate)” value is given as “high polyreactivity”.

For the sequence “QVQLVESRGGLVQAGGSLRLSCAASGSIFNYNAMGCYRQAPGKEREFVAAINQGGTSTYYADSVKGRFTISRDNANHTVYLQMNSLKPEDTAVYYCAALITVYRGSYEYCGQGTQVTVSS”, the “polyreactivity (PSR sort gate)” value is recorded as “low polyreactivity”.

On to “QVQLVESRGGLVQAGGSLRLSCAASGSIFVWNAKGWYRQAPGKERELVAAINVRSASTFYADSVKGRFTISRDIAKNTVYLQMNSLKPEDTAVYYCATSYTKQGFRYYYWGQGTQVTVSS”, for which the “polyreactivity (PSR sort gate)” value is “high polyreactivity”.

For the sequence “QVQLVESRGGLVQAGGSLRLSCAASGSNFYAYAMGWYRQAPGKERELVAAISWSTSSTYADSVKGRFTISRDNAKNTVYLQMNSLKPEDTAVYYCAASPYKGTGAEFDYWGQGTQVTVSS”, the “polyreactivity (PSR sort gate)” value is reported as “low polyreactivity”.

In the case of “QVQLVESRGGLVQAGGSLRLSCAASGSTFNYYTMGWNRQAPGKERELVATITSGGTTYYADSVKGRFTISRDNAKNTVYLQMNSLKPEDTAVYYCAVQLRRHVDMDYWGQGTQVTVSS”, the “polyreactivity (PSR sort gate)” value is “high polyreactivity”.

For the sequence “QVQLVESRGGLVQAGGSLRLSCAASGSTFTYNAMGWYRQAPGKERELDAAISSDGRTYYADSVKGRFTISRDNAKNTVYLQMNSLQPEDTALYYCAAMYWFYVYPFTEYDYWGQGTQVTVSS”, the “polyreactivity (PSR sort gate)” value is reported as “low polyreactivity”.

As to “QVQLVESRGGLVQAGGSLRLSCAASGSTFTYYAMGWYRQAPGKERELVAAITFRGDSTYYADSVKVRFTISRDNAKNTVYFQMNSLKPEDTAVYYWGQGTQVTVSS”, the “polyreactivity (PSR sort gate)” value was “low polyreactivity”.

As to “QVQLVESRGGLVQAGGSLRLSCAASGSTLSQNAMGWYRQAPGKEREFDADISGSGDSTYYADSVKGRFTISRDNAKNTFYLQMNSLKPEDTAVYYCATPSPHVGLKWEYDYWGQGTQVTVSS”, the “polyreactivity (PSR sort gate)” value is on record as “low polyreactivity”.

As for “QVQLVESRGGLVQAGGSLRLSCAASGSTLYQYAMGWYRQAPGKERELVAAITKSGGRTYYADSVKGRFTISRDNAKNTVYLHMNSLKPEDTAVYYCNVVRGSYSSGGDYWGQGTQVTVSS”, the “polyreactivity (PSR sort gate)” value is “high polyreactivity”.

For the sequence “QVQLVESRGGLVQAGGSLRLSCAASGYIFRSNAMGWYRQAPGKERELVAAITRSGGSTYYADSVKGRFTISRDNAKITVFLQMNSLKPEDTAVYYCAVLPRGSNGMDYWGQGTQVTVSS”, the “polyreactivity (PSR sort gate)” value is “low polyreactivity”.

Take “QVQLVESRGGLVQAGGSLRLSCAASGYTFDWYTMGWYRQAPGKERELVAAISASGVRTYYADSVKGRFTISRDNAKNTVYLQMNSLKPEDTAVYYCYRVYSTSRITQYEFDYWGLGTQVTVSS”: the “polyreactivity (PSR sort gate)” value is given as “low polyreactivity”.

On to “QVQLVESRGGLVQAGGSLRLSCAASVRTFQKNTMGWYRQAPGKERELVAAIDYSATSTYYADSVKGRFTISRDNAKNTVYLQMNSLKPEDTAVYYCAARWSYPRWEFDYWGQGTQVTVSS”, for which the “polyreactivity (PSR sort gate)” value was “high polyreactivity”.

For the sequence “QVQLVESRGGLVQAGGSLRLSCSASGFIRTYAMGWYRQAPAKERELVAAITSSGGRTNYADSVKGRFTISRDNAKNTVYLQMNSLKPEDTAVYYCAAGLGRYLRYNYWGQGTQVTVSS”, the “polyreactivity (PSR sort gate)” value is on record as “high polyreactivity”.

Consider “QVQLVESRGGLVQAGGSLRLSCSASGITFNHYAMGWYRQAPGKERQLVAAITGSGGSTYYADSVKGRFTISRDNGKNTVYLQMNSLKPEDTAVYYCKTSPKLTYAVLYDYWGQGTQVTVSS”, for which the “polyreactivity (PSR sort gate)” value was “high polyreactivity”.

As for “QVQLVESRGGLVQAGGSLRLSSAASGFIFDDNAMGWYRQAPGKERQLVAAITSGGGSTYYADSVKGRFTISRDNAKNTVYLQMNSLKPDDTAVYSCNAKLFIRWFTYDYWGQGTQVTVSS”, the “polyreactivity (PSR sort gate)” value is “low polyreactivity”.

For the sequence “QVQLVESRGGLVQAGGSLRLTCAAYGRIFLVYDMGWYRHAPGKERELVAAISWSTGSTYYADSVKGRFTISRDNAKNTFYFQINSLITEDTAVYYCAAEPELDDYEHDYWGQGTQLTVSS”, the “polyreactivity (PSR sort gate)” value is “low polyreactivity”.

For the sequence “QVQLVESRGGLVQVGGSLRLSCAASGRTFGRYAMGWYRQAPGNERELVAAINSVARTNYADSVKGRFTISRDNAKNTVYLQMNSLKPEDSAVYYCAARRRGSVGVGYAYPYNYWGQGTQVTVSS”, the “polyreactivity (PSR sort gate)” value is recorded as “high polyreactivity”.

In the case of “QVQLVESRGGVVQAGGSLRLSSAASGTFVYAMGWYRQAPGKERELVAAISYSGGSTYYADSVKGRFTISRDNAKNTVYLQMNSLKPEDTAVYYCAARTTLSYGYDYWGQGTQVTVSS”, the “polyreactivity (PSR sort gate)” value is “high polyreactivity”.

For “QVQLVESRRGLVQAGASLPLRCAASVSTLDTYAMGLYRQAPGKERELVAAISRSGNSTYYADSVKGRFTISRDNAKNTVYLQMNSLKPEDTAVYYCAAYGPRVNGEIGREYYYWGQGTQVTVSS”, the “polyreactivity (PSR sort gate)” value is given as “low polyreactivity”.

Take “QVQLVESRRGLVQAGGSIRLSCAASGSTFPYNAMGWYRQAPGKDRELVAAITSAGGTNYADSVKGRFTISRDNAKNSVYLQMNSLKPEDSAVYSCAAVGSGYYDGYFYWGQGTQVTVSS”: the “polyreactivity (PSR sort gate)” value was “low polyreactivity”.

Regarding “QVQLVESRVGLVQAGGSLRLSCAASGFTFGHYVMGWYRQAPGKERELVAAITLSGGGTYYADSVKGRFTISRDNAKNTVYLQMNSLKPEDTAVYYCAAVGGEHAKKTYSRYKVDYWGQGTQVTVSS”, the “polyreactivity (PSR sort gate)” value was “low polyreactivity”.

As for “QVQLVESSGGLVQAGGSLRLSCAASGSTFALYAMGRYSQAPGKERELVAAITASGGSTYYADSVKGRLTISRDIAKKTVDLQMNSLKAEDTAVYYCATGRTKRYLYPPGYWGQGTQVTVSS”, the “polyreactivity (PSR sort gate)” value is recorded as “high polyreactivity”.

As to “QVQLVESVGCLVQAGGSLRLSCPASGFNFPGYALGWYRQAPGKERELVAAITGSGGRTYYADSVKGRFTISRDNAKNTVYLQMNSLKQEDTAVYYCLARSYYNWNDYWGQGTQVTVSS”, the “polyreactivity (PSR sort gate)” value was “high polyreactivity”.

Regarding “QVQLVESVGGIVQAGGSLRLSCAASGSIINWYAMGWYRQAPGKERELVAAISSSGSTNYADSVKGRFTISRDNAKNTVYLQMNSLKPEDTAVYYCNADEYYLNNYNYGYWGQGTQVTVSS”, the “polyreactivity (PSR sort gate)” value is “low polyreactivity”.

For “QVQLVESVGGLDQAGGSLRLSCAASGFTFQYYAMGWYRQAPGKERELVAAITSNGGGTYYADSVKGRFTISRDNAKNTVYLQMNSLKPEDTAVYYCAADRWYSMDYWGQGTQVTVSS”, the “polyreactivity (PSR sort gate)” value was “high polyreactivity”.

With “QVQLVESVGGLGQAGGSLRLSCAASGSTFAGYTMGWYRQAPGKERELVAANTSRGGRTYYADSVKGRFTISRDNAKNTVYIQMNSLKPEDTAVYYCAAVSRYYAELMYYWGQGTQVTVSS”, the “polyreactivity (PSR sort gate)” value is listed as “high polyreactivity”.

As to “QVQLVESVGGLLQAGGSLRLSCAASGFTFSGNGRGWYRQAPGKERELVAAITSTGNTYYADSVKGRFTISRDNAKKTVYLQMNRLKPEDTAVYYCARRGDLLYDYWGQGTQVTVSS”, the “polyreactivity (PSR sort gate)” value was “low polyreactivity”.

As to “QVQLVESVGGLLQAGGSLRLSCAASGSIFRGYAMGWYRQAPGKERDLVAAISWSGGSTYYADSVKGRFTISRDNAKNTVYLQMNRLKPEDTAVYYCAADRVVFGYWYYYWGQGTQVTVSS”, the “polyreactivity (PSR sort gate)” value is listed as “high polyreactivity”.

As for “QVQLVESVGGLLQAGGSLRLSCDASGSIFADYAMGWYRQAPGKERELVAVITSSGGSTNYADSVKGRFTISRDNAKNTVYLQMNSLKPEDTAVYYCNRRPYPSYDYWGQGTQVTVSS”, the “polyreactivity (PSR sort gate)” value is given as “low polyreactivity”.

Consider “QVQLVESVGGLVHAGGSLRLSCAASGRTFGYNAMGWYRQATGKERELVAAISFRGGTTYYADSVKGRFTISRDNAKITVYLQMNCLIPEDPSVYYCAARYYYRYTGGRLDYWGQGTQVTVSS”, for which the “polyreactivity (PSR sort gate)” value is given as “high polyreactivity”.

For the sequence “QVQLVESVGGLVHAGGSLRLSCAASGSTFRYNAMGWYRQAPGKDRELVAAISWSGGSTYYADSVKGRFTISRDNAKNTVYFQMNSLIPEDTAVYYCAKVYFWGALSPDKYDEDYWGQGTQVTVSS”, the “polyreactivity (PSR sort gate)” value was “low polyreactivity”.

Take “QVQLVESVGGLVKAGGSLRLSCAASGRTFYNAMGWYRQAPGKERELVAAISSDGSTYYADSVKGRFTISRDNAKNTVYLQMNSLKPEDTAVYYCARDLGSWYYQVRFGYWGQGTQVTVSS”: the “polyreactivity (PSR sort gate)” value was “high polyreactivity”.

Turning to “QVQLVESVGGLVLAGGSLRLSCAASGFTFPRYVMGSYRPAPGKAREFVAAITFSGGSTYYADSVKGRFTIARDNAKNTVYLQMNSLKPEDTAVYYCAAGASLWRLGLKRGYWGQGTQVTVSS”, the “polyreactivity (PSR sort gate)” value is “low polyreactivity”.
